According to patent publication US12072338B2, “Pharmaceutical peptides for the treatment of inflammatory diseases” (PROTAGONISTS LTD., priority 2007, dated 2024):

Experiments:
I-TAC = biological target: T1, I-TAC (Homo sapiens, UniProt O14625); assay: Micro-array analysis of chemokine binding peptides: I-TAC
T1 construct: purchased 300-46
T1 sequence (O14625 22-94): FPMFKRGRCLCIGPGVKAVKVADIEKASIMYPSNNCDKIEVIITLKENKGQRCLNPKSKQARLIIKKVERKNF
Description: (§1) (1) Printing: Chemokine (CK) solution (in water) was serially diluted with Print Reagent (GenTel BioSurfaces USA) to final concentrations of 50 μg and 25 μg/ml. BSA/BSA-Biotin control solutions (in water) were diluted with Print Reagent to 100 μg/ml. Amplified stock of M13 phage control (M13KEgIII Cloning Vector, New England Biolabs, Cat.No.E8101S) was stored in Tris Buffered Saline (TBS; pH7.5, 4° C.) and diluted with Print Reagent to the working titre (10^8 pfu/μl). An automated spotting robot (16 pin print tool, 0.4 mm head; BioRobotics, UK) was used to print the CK/BSA control/M13 control, 5 repeats per sample (CK 25 μg/ml and 50 μg/ml; BSA 100 μg/ml; M13 20 μl), on PATH Protein Microarray Slides (GenTel, Prod.No. 2-1005/-1025) at […], and 50-70% relative humidity. Printed micro-array slides were stored at Room Temperature (RT) or 4° C. for at least 24 h before use.
(§2) (2) Blocking: Block Buffer (500 μl/partition; PATHblock, GenTel, Prod.No. 2-1014) was applied to the slide for 1 hour at room temp (RT). After removal of Block Buffer, the slide was air dried for 25 minutes;
(§3) (3) Phage Presented Peptide Binding: Amplified recombinant phage stock was stored in TBS and diluted with Wash Buffer to working titer (10^7 pfu/μl). Recombinant phage suspension (300 μl) was applied per partition and incubated at RT for 1 hour with gentle agitation.
(§4) (4) First Washing: The slides were washed twice with Wash Buffer 300 μl/partition).
(§5) (5) Primary Antibody (Ab) Labeling: The slides were incubated with the Primary Ab (1 mg/ml diluted ×2500 (Wash Reagent), 300 μl; Mouse Anti-M13 monoclonal Ab; Amersham Biosciences, UK; Product Code 27-9420-01) for 45 minutes at RT.
(§6) (6) Second Washing: The slides were washed twice with Wash Buffer (300 μl/partition).
(§7) (7) Secondary Ab Labeling: The slides were incubated with Secondary Ab (1.5 mg/ml diluted ×5000 (Wash Reagent), 300 μl; Cy3-conjugated AffiniPure Goat Anti-Mouse IgG; Jackson ImmunoReserch Labs, USA; Product Code 115-165-062).
(§8) (8) Third Washing: The slides were washed twice with Wash Buffer (300 μl/partition).
(§9) (9) Rinse: the slides were rinsed twice with Rinse Buffer (PATHrinse, GenTel, Prod.No. 2-1018) then dried well.
(§10) (10) Scanning: The peptide-bound, labeled slide was scanned (Laser Intensity 80%, Gain 80%, Resolution 10 μm) with a ScanArray Life Scanner (Packard BioChip Technologies, USA).
(§11) (11) Analysis: Quantitative analysis of micro-array was performed by the SpotReader program of Niles Scientific (USA) and presented as Relative Fluorescence (RF) as a function of CK concentration. Micro-array readout (Cy3 fluorescence) was quantified to determine the relative binding affinities of a CBP for the CKs and by inference, the specificity of the CBP for binding to a CK.

Eotaxin 3 = biological target: T2, Eotaxin 3 (Homo sapiens, UniProt Q9Y258); assay: Micro-array analysis of chemokine binding peptides: Eotaxin 3
T2 construct: purchased 300-48
T2 sequence (Q9Y258 24-94): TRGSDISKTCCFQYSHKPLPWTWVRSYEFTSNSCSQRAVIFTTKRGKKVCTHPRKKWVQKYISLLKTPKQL
Description: as §1, §2, §3, §4, §5, §6, §7, §8, §9, §10, §11

IP-10 = biological target: T3, IP-10 (Homo sapiens, UniProt P02778); assay: Micro-array analysis of chemokine binding peptides: IP-10
T3 construct: purchased 300-12
T3 sequence (P02778 22-98): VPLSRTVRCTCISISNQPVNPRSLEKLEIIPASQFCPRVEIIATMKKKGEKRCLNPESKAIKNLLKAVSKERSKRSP
Description: as §1, §2, §3, §4, §5, §6, §7, §8, §9, §10, §11

I-309 = biological target: T4, I-309 (Homo sapiens, UniProt P22362); assay: Micro-array analysis of chemokine binding peptides: I-309
T4 construct: purchased 300-37
T4 sequence (P22362 24-96): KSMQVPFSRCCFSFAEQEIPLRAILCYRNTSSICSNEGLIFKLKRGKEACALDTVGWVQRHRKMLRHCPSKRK
Description: as §1, §2, §3, §4, §5, §6, §7, §8, §9, §10, §11

TECK = biological target: T5, TECK (Homo sapiens, UniProt O15444); assay: Micro-array analysis of chemokine binding peptides: TECK
T5 construct: purchased 300-45
T5 sequence (O15444 24-150): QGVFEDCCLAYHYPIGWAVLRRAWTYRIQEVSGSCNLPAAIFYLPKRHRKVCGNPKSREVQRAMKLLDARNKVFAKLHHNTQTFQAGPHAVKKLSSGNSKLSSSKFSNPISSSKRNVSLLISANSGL
Description: as §1, §2, §3, §4, §5, §6, §7, §8, §9, §10, §11

Lymphotactin = biological target: T6, Lymphotactin (Homo sapiens, UniProt P47992); assay: Micro-array analysis of chemokine binding peptides: Lymphotactin
T6 construct: purchased 300-20
T6 sequence (P47992 22-114): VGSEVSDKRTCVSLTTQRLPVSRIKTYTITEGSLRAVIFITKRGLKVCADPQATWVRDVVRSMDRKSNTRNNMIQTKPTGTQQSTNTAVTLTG
Description: as §1, §2, §3, §4, §5, §6, §7, §8, §9, §10, §11

MCP-4 = biological target: T7, MCP-4 (Homo sapiens, UniProt Q99616); assay: Micro-array analysis of chemokine binding peptides: MCP-4; conditions: limit = start of the upper 75% of that peptide's response range
T7 construct: purchased 300-24
T7 sequence (Q99616 17-98): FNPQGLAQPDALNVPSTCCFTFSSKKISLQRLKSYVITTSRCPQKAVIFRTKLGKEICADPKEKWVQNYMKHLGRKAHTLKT
Description: as §1, §2, §3, §4, §5, §6, §7, §8, §9, §10, §11

SDF1-β = biological target: T8, SDF1-β (Homo sapiens, UniProt P48061); assay: Micro-array analysis of chemokine binding peptides: SDF1-β
T8 construct: purchased 300-28b
T8 sequence (P48061 22-93): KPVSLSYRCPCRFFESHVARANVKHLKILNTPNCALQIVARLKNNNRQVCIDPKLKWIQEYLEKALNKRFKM
Description: as §1, §2, §3, §4, §5, §6, §7, §8, §9, §10, §11

Eotaxin = biological target: T9, Eotaxin (Homo sapiens, UniProt P51671); assay: Micro-array analysis of chemokine binding peptides: Eotaxin
T9 construct: purchased 300-21
Description: as §1, §2, §3, §4, §5, §6, §7, §8, §9, §10, §11

MCP-2 = biological target: T10, MCP-2 (Homo sapiens, UniProt P80075); assay: Micro-array analysis of chemokine binding peptides: MCP-2; conditions: limit = start of the upper 75% of that peptide's response range
T10 construct: purchased 300-15
T10 sequence (P80075 24-99): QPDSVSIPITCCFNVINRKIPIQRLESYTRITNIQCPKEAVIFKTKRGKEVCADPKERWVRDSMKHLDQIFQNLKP
Description: as §1, §2, §3, §4, §5, §6, §7, §8, §9, §10, §11

BCA-1 = biological target: T11, BCA-1 (Homo sapiens, UniProt O43927); assay: Micro-array analysis of chemokine binding peptides: BCA-1
T11 construct: purchased 300-47
T11 sequence (O43927 23-109): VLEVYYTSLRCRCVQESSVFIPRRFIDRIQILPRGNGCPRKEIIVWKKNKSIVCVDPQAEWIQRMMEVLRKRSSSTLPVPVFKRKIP
Description: as §1, §2, §3, §4, §5, §6, §7, §8, §9, §10, §11

Mig = biological target: T12, Mig (Homo sapiens, UniProt Q07325); assay: Micro-array analysis of chemokine binding peptides: Mig
T12 construct: purchased 300-26
T12 sequence (Q07325 23-125): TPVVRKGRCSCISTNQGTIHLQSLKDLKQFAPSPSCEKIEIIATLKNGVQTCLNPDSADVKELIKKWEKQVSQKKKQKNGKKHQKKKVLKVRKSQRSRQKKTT
Description: as §1, §2, §3, §4, §5, §6, §7, §8, §9, §10, §11

[1] = tested on: Adjuvant-Induced Arthritis (AIA) rats; assay: Adjuvant Induced Arthritis (AIA) rat model, Clinical Score; type: in vivo; conditions: 25 μg IP on days 7-18
Description: Peptides were tested in a rat model of AIA for their anti-inflammatory effects.
Disease Induction: AIA was induced in female Lewis rats aged 7-8 weeks by injection of heat-killed Mycobacerioum tuberculosis (Mt strain H37Ra, Difco Laboratories, USA) dispersed in incomplete Freund's adjuvant to a final concentration of 10 mg/ml (100 μl) at the base of the tail on day 0.
Measurement: Clinical Score (CS, 0-4) for each limb based on (a) joint inflammation, (b) redness, (c) deformity.
Efficacy Protocol 1 (5 rats per group). Peptide/control compound was injected intra-peritoneally (IP, 200 μl) on days 7-11 and 14-18.
Rats were sacrificed (CO2 inhalation) on day 43.
Efficacy Protocol 2 (8 rats per group). Group 1: peptide/PBS was injected intra-peritoneally (IP, 200 μl) on days 7-18; Group 2: PBS was injected IP on days 7-18; Group 3: Dexamethasone (Dexa) was injected IP on days 11 (Clinical Score (CS)1) and 13. Rats were sacrificed on day 43.
Combination Efficacy Protocol 1 (8 rats per group). Group 1: peptide injected IP on days 7-18; Group 2: PBS injected IP on days 7-18; Group 3: Dexa injected IP on day 11 (CS 1) and day 13; Group 4: Dexa injected IP on days 11 and 13 then peptide injected on days 14-22; Group 5: Dexa injected IP on days 11 and 13 then PBS injected on days 14-22.
(§12) Combination Efficacy Protocol 2 (8 rats per group). Group 1: peptide injected IP on days 7-18; Group 2: PBS injected IP on days 7-18; Group 3: Dexa injected IP on day 11 (CS 1) and day 13 then PBS on days 14-22; Group 4: PBS injected IP on days 7-10,12,14; Dexa injected on days 11, 13. Peptide injected on days 15-19.
as §12, with “Protocol 3” for “Protocol 2”, “4: peptide” for “4: PBS”
Control Reagents for Adjuvant Induced Arthritis: Anti-Inflammatory Control: Dexamethasone Sodium Phosphate (Dexacort Forte, Teva) was dissolved in Phosphate Buffer Saline (PBS, GIBCO) to a final concentration of 1 mg/ml and injected in 200 μl (200 μg).
Negative Control: Phosphate Buffer Saline (PBS).

IL-8 = assay: Micro-array analysis of chemokine binding peptides: IL-8; conditions: limit = start of the upper 75% of that peptide's response range
Sequence of IL-8 (P10145 28-99 limits assumed): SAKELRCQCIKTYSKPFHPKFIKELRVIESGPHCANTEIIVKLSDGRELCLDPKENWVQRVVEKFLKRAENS
Description: as §1, §2, §3, §4, §5, §6, §7, §8, §9, §10, §11

Fractalkine = biological target: T13, Fractalkine (Homo sapiens, UniProt P78423); assay: Micro-array analysis of chemokine binding peptides: Fractalkine
T13 construct: purchased 300-31
T13 sequence (P78423 25-100 limits assumed): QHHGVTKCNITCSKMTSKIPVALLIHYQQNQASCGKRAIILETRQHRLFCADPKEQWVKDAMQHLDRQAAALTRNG
Description: as §1, §2, §3, §4, §5, §6, §7, §8, §9, §10, §11

[2] = limit = start of the upper 75% of that peptide's response range

binding to I-TAC, stated in words (I-TAC) | binding to Eotaxin 3, stated in words (Eotaxin 3) | binding to IP-10, stated in words (IP-10) | binding to I-309, stated in words (I-309) | binding to TECK, stated in words (TECK) | binding to Lymphotactin, stated in words (Lymphotactin) | binding to MCP-4 with relatively high affinity (Relative Fluorescence Units) (MCP-4) | binding to SDF1-β, stated in words (SDF1-β) | binding to Eotaxin, stated in words (Eotaxin) | binding to MCP-2 with relatively high affinity (Relative Fluorescence Units) (MCP-2) | binding to BCA-1, stated in words (BCA-1) | binding to Mig, stated in words (Mig) | binding to I-TAC with relatively high affinity (Relative Fluorescence Units) (I-TAC; [2]) | binding to Eotaxin 3 with relatively high affinity (Relative Fluorescence Units) (Eotaxin 3; [2]) | binding to I-309 with relatively high affinity (Relative Fluorescence Units) (I-309; [2]) | binding to IL-8 with relatively high affinity (Relative Fluorescence Units) (IL-8) | binding to Fractalkine, stated in words (Fractalkine) | binding to Mig with relatively high affinity (Relative Fluorescence Units) (Mig; [2]) | Sequence | maximal anti-inflammatory effect [1]
bound | bound | bound | bound | bound | bound | > 15,000 RFU | bound | bound | > 15,000 RFU | bound | bound | – | – | – | – | – | – | WVFGNAACK [Ph-p8.7] | –
– | – | – | – | – | – | – | – | – | – | – | – | – | – | – | – | – | – | WVFGNMICK [P8 Rat] | 40%
– | – | – | – | bound | – | > 15,000 RFU | bound | – | > 15,000 RFU | bound | – | > 15,000 RFU | > 15,000 RFU | > 15,000 RFU | > 15,000 RFU | bound | > 15,000 RFU | WVFGVHFCK [Ph-p8.77] | 23%
